From patent US20200317768A1 (published 2020)
Numbering of substitutions follows the chain as printed. Each block holds one binder with its values, some of them ahead of it.

Tests used:
[1] = target: T1, Cynomolgus monkey latent myostatin (cynomolgus monkey, UniProt Q95J86 25-266; Q95J86 267-375); experiment: SPR (BIACORE T200) 37C, pH 5.8, antibody captured by ProA/G
T1 construct: Latent form = complex of two propeptides and the mature dimer; also called Cyno latent myostatin
T1 sequence 1: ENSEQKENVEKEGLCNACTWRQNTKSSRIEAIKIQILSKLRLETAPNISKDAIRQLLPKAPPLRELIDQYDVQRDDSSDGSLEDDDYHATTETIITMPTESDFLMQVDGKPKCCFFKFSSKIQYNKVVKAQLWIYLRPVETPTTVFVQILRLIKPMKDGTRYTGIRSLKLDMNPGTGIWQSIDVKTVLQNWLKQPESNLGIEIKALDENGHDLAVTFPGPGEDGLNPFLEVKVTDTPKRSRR
T1 sequence 2: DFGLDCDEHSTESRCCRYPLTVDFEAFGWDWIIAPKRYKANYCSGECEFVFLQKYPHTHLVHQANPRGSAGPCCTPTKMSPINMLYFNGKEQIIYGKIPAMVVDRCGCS
Procedure: (§1) ProA/G (Pierce) was immobilized onto all flow cells of a CM4 chip using an amine coupling kit (GE Healthcare). All antibodies and analytes were prepared in ACES pH7.4 or pH5.8 buffer containing 20 mM ACES, 150 mM NaCl, 1.2 mM CaCl₂, 0.05% TWEEN®) 20, 0.005% NaN₃. […] Human, cyno, and mouse latent myostatin was injected at 3.125 to 50 nM prepared by two-fold serial dilution, followed by dissociation. The sensor surface was regenerated each cycle with 10 mM Glycine HCl pH1.5. Binding affinity was determined by processing and fitting the data to a 1:1 binding model using BIACORE® T200 Evaluation software, version 2.0 (GE Healthcare).

[2] = target: T1, Cynomolgus monkey latent myostatin; experiment: SPR (BIACORE T200) 37C, pH 7.4, antibody captured by ProA/G
Procedure: as §1

[3] = target: T2, Mouse latent myostatin (mouse, UniProt O08689 26-267; O08689 268-376); experiment: as above
T2 construct: Latent form = complex of two propeptides and the mature dimer
T2 sequence 1: T1 sequence 1 with N2G, Q5R, K6E, T19A, K25R, S26Y, K59R, V107A, E140K, N173S
T2 sequence 2: T1 sequence 2
Procedure: as §1

[4] = target: T3, Human latent myostatin (human, UniProt O14793 25-266; O14793 267-375); experiment: as above
T3 construct: also called human myostatin latent form
T3 sequence 1: T1 sequence 1 with A52V
T3 sequence 2: T1 sequence 2
Procedure: as §1

[5] = target: T1, Cynomolgus monkey latent myostatin; experiment: SPR 37C; KD pH 5.8 / KD pH 7.4
Procedure: as §1

[6] = target: T3, Human latent myostatin; experiment: SPR (BIACORE T200) 37C, pH 5.8, antibody captured by ProA/G
Procedure: as §1

[7] = target: T3, Human latent myostatin; experiment: SPR 37C; KD pH 5.8 / KD pH 7.4
Procedure: as §1

[8] = target: T4, human FcγRIIIaV extracellular domain, His-tagged (human, UniProt P08637 17-208); experiment: SPR (BIACORE), 25 C, antibody captured, FcgR as analyte; KD of SG1 divided by KD of variant;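 further: relative to parent M103205H795-SG1 carrying the SG1 human heavy chain constant region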
T4 construct: also called human FcγRIIIa (V158); FcgRIIIaV; not shown: C-terminal His-tag
T4 sequence (P08637 17-208 F176V): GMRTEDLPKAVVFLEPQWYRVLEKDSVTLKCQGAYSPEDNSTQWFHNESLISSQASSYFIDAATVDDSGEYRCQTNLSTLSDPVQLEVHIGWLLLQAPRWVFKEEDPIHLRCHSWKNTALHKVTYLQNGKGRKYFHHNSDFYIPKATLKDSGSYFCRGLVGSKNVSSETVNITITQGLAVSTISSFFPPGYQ
Procedure: (§2) The kinetic analysis of interactions between these antibodies and FcγR was carried out using BIACORE® T200 or BIACORE® 4000 (GE Healthcare). HBS-EP+ (GE Healthcare) was used as the running buffer, and the measurement temperature was set to 25° C. A chip produced by immobilizing Protein A. Protein A/G or mouse anti-human IgG kappa light chain (BD Biosciences) onto a Series S Sensor Chip CM4 or CM5 (GE Healthcare) by the amine-coupling method was used. […] After the measurement, the antibody captured on the chip was washed off by allowing reaction with 10 mM glycine-HCl, pH1.5 and 25 mM NaOH so that the chip was regenerated and used repeatedly. The sensorgrams obtained as measurement results were analyzed by the 1:1 Langmuir binding model using the BIACORE® Evaluation Software to calculate the binding rate constant ka (L/mol/s) and dissociation rate constant kd (l/s), and the dissociation constant KD (mol/L) was calculated from these values. […] Regarding such interactions, KD values were calculated using the following 1:1 binding model described in BIACORE® T100 Software Handbook BR1006-48 Edition AE.

[9] = target: T5, cynomolgus monkey FcγRIIa3 extracellular domain, His-tagged (cynomolgus monkey); experiment: as above
T5 construct: also called cyno FcγRIIa3; FcgRIIa3; not shown: C-terminal His-tag
T5 chain: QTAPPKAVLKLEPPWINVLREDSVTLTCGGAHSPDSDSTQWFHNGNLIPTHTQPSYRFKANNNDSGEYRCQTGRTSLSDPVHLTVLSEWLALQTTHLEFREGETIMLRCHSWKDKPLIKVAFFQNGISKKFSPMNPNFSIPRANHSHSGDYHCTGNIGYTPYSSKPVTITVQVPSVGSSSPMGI
Procedure: as §2

[10] = target: T6, human FcγRIIb extracellular domain, His-tagged (human, UniProt P31994 43-217); experiment: as above
T6 construct: also called FcgRIIb (human); not shown: C-terminal His-tag
T6 sequence: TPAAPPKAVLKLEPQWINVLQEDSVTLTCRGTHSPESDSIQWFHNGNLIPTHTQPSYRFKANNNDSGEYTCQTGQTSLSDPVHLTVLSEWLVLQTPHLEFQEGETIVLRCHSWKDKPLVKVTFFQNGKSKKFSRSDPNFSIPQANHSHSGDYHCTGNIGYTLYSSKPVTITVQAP
Procedure: as §2

[11] = target: T7, cynomolgus monkey FcγRIIIaS extracellular domain, His-tagged (cynomolgus monkey, UniProt Q8SPW2 21-206 at identity 1.00)); experiment: as above
T7 construct: also called cyno FcγRIIIaS; FcgRIIIaS; not shown: C-terminal His-tag
T7 chain: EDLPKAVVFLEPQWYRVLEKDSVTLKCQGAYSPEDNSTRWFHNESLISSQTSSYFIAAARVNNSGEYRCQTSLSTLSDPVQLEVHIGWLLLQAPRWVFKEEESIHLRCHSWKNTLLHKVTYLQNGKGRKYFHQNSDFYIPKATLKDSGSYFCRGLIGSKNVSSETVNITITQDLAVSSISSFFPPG
Procedure: as §2

[12] = target: T8, cynomolgus monkey FcγRIIa1 extracellular domain, His-tagged (cynomolgus monkey); experiment: as above
T8 construct: also called cyno FcγRIIa1; FcgRIIa1; not shown: C-terminal His-tag
T8 chain: T5 chain with T95P, A121T, S128A, P133H, N135D
Procedure: as §2

[13] = target: T9, cynomolgus monkey FcγRIIa2 extracellular domain, His-tagged (cynomolgus monkey); experiment: as above
T9 construct: also called cyno FcγRIIa2; FcgRIIa2; not shown: C-terminal His-tag
T9 chain: T5 chain with I127K, K130N, P133H, R142Q
Procedure: as §2

[14] = target: T10, human FcγRIIaR extracellular domain, His-tagged (human, UniProt P12318 34-217); experiment: as above
T10 construct: also called human FcγRIIa (type R); FcgRIIaR; not shown: C-terminal His-tag
T10 chain: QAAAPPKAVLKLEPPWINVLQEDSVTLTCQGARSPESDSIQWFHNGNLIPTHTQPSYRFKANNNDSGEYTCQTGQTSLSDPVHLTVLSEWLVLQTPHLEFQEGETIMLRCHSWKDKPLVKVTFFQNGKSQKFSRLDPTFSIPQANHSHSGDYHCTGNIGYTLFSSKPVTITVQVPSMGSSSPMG
Procedure: as §2

[15] = target: T11, cynomolgus monkey FcγRIIb extracellular domain, His-tagged (cynomolgus monkey); experiment: as above
T11 construct: also called cyno FcγRIIb; cynoFcγRIIb; not shown: C-terminal His-tag
T11 chain: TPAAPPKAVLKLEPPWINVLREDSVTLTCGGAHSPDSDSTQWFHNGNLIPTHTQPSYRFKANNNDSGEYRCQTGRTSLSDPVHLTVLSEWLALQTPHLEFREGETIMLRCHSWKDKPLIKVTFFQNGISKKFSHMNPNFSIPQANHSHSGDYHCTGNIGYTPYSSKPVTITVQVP
Procedure: as §2

[16] = target: T12, human FcγRIIaH extracellular domain, His-tagged (human, UniProt P12318 34-217); experiment: as above
T12 construct: also called human FcγRIIa (type H); FcgRIIaH; not shown: C-terminal His-tag
T12 sequence: T10 chain with R134H
Procedure: as §2

Kd [1]: 80.9 nM
Kd [2]: 0.354 nM
Kd [3]: 0.272 nM
Kd [4]: 0.329 nM
ratio of KD at pH 5.8/pH 7.4 [5]: 229
B1: MS_M103205H1186-SG1/M103202L889-SK1 (antibody, human IgG1, kappa, V domains shown)
VH: QVTLKESGPVLVKPTETLTLTCTVSGIDLSHDDISWVRQAPGKGLEWVGIISYAGKKYYASWAKGRLTISKDTSKNQVVLTMTNMDPVDTATYYCARGVPAYSHGGDLWGQGTLVTVSS
VL: DIVMTQSPATLSLSPGERATLSCTSSQSVYHANWLSWFQQKPGQPPKLLIYWASTLAYGVPSRFSGSGSGTDFTLTISSLQPEDAATYYCAGGYGGGRYAFGQGTKVEIKR
notes: also called MS1032LO18-SG1

Kd [1]: 31 nM
Kd [6]: 52.3 nM
Kd [2]: 0.309 nM
Kd [4]: 0.257 nM
ratio of KD at pH 5.8/pH 7.4 [5]: 100
ratio of KD at pH 5.8/pH 7.4 [7]: 204
B2: MS_M103245H795-SG1/M103202L1045-SK1 (antibody, human IgG1, kappa, V domains shown)
VH: B1 VH with T23K, G49S, K56S, K57T
VL: B1 VL with S25T, A32E
notes: also called MS1032LO21-SG1

KD fold (SG1 = 1) [8]: 0.3 fold
KD fold (SG1 = 1) [9]: 11.3 fold
KD fold (SG1 = 1) [10]: 15.9 fold
KD fold (SG1 = 1) [11]: 0.4 fold
KD fold (SG1 = 1) [12]: 3.7 fold
KD fold (SG1 = 1) [13]: 5.4 fold
KD fold (SG1 = 1) [14]: 14.9 fold
KD fold (SG1 = 1) [15]: 7.8 fold
KD fold (SG1 = 1) [16]: 7 fold
B3: M103205H795-MY449 / M103202L889-SK1 (antibody, human IgG1, kappa)
heavy: QVTLKESGPVLVKPTETLTLTCTVSGIDLSHDDISWVRQAPGKGLEWVGIISYAGSTYYASWAKGRLTISKDTSKNQVVLTMTNMDPVDTATYYCARGVPAYSHGGDLWGQGTLVTVSSASTKGPSVFPLAPSSKSTSGGTAALGCLVKDYFPEPVTVSWNSGALTSGVHTFPAVLQSSGLYSLSSVVTVPSSSLGTQTYICNVNHKPSNTKVDKKVEPKSCDKTHTCPPCPALELLTGPSVFLFPPKPKDTLMISRTPEVTCVVVDVSDEDPEVKFNWYVDGVEVHNAKTKPREEQYNSTYRVVSVLTVLHQDWLNGKEYKCKVSNKALPKPIEKTISKAKGQPREPQVYTLPPSREEMTKNQVSLTCLVKGFYPSDIAVEWESNGQPENNYKTTPPVLDSDGSFFLYSKLTVDKSRWQQGNVFSCSVMHEALHNHYTQKSLSLSP
light: DIVMTQSPATLSLSPGERATLSCTSSQSVYHANWLSWFQQKPGQPPKLLIYWASTLAYGVPSRFSGSGSGTDFTLTISSLQPEDAATYYCAGGYGGGRYAFGQGTKVEIKRTVAAPSVFIFPPSDEQLKSGTASVVCLLNNFYPREAKVQWKVDNALQSGNSQESVTEQDSKDSTYSLSSTLTLSKADYEKHKVYACEVTHQGLSSPVTKSFNRGEC
